Experimental findings from the nanobody polyreactivity screen of Harvey et al. (2022) are described below.

This data set is described as follows: yeast display, Sf9 membrane polyspecificity reagent, FACS + sequencing; frameworks hold sequencing errors. An outline of the steps: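 Nanobodies from a synthetic yeast display library (Saccharomyces cerevisiae BJ5465), induced 36–48 hours with galactose, were stained 1 hour at 4 °C with 10% biotinylated, detergent-solubilized Sf9 membrane reagent, enriched on streptavidin microbeads, then FACS-sorted. Anti-HA (expression) and streptavidin (reagent binding) fluorescence set low and high (top ~1%) gates. Polyreactivity labels come from the gate of origin. Genes were colony-PCR amplified, MiSeq 2 × 250 sequenced and filtered by CDR length.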
For the sequence “QVQLVESGGGLVQAGGSLRLSCAASGRTFGVNAMGGYRQAPGKERELVAAISKRGGSTYYADSVKGRFTISRDNAKNTVYLQMNSLKPEDTAVYYCAKDQPHRGPMDYWGQGTQVTVSS”, the “polyreactivity (PSR sort gate)” value is “high polyreactivity”.

Take “QVQLVESGGGLVQAGGSLRLSCAASGRTFGVNAMGWYRQAPGKERELVAVISRSTGSTYYADSVKGRFTISRDNAKNTVYLQMNSLKPEDTAVYYCAAGFWVRGFRRFDYWGQGTQVTVSS”: the “polyreactivity (PSR sort gate)” value was “high polyreactivity”. With “QVQLVESGGGLVQAGGSLRLSCAASGRTFGVNAMGWYRQAPRKERELVAAINRGGSTYYADSVKGRFTISRDNAKNTVYLQMISLNPEDTAVYYCAAYVSAVHGISGYWGQGTQVTVSS” the entry was “low polyreactivity”; with “QVQLVESGGGLVQAGGSLRLSCAASGRTFGVNMGWYRQAPGKERELVAGITSGGSTYYADSVKGRFTISRDNAKNTVYLQMNSLKPEDTAVFYCAKSYRGKWSPYYYWGQGTQVTVSS”, “high polyreactivity”; with “QVQLVESGGGLVQAGGSLRLSCAASGRTFGVYVMGWSRQAPGKERELVAVITISGGSTYYADSVKGRFTISRDNAKNTVYLQMNSLKPEDTAVYYCAARTYYGYDYWGQGTQVTVSS”, “high polyreactivity”. As for “QVQLVESGGGLVQAGGSLRLSCAASGRTFGWYAMGWYRQAPGKEREFVAVISRSGTNTYYADSVKGRFTISRDNAKNTVYLQMNSLKPEDTAVYYCAAVRSSQSYYYWGQGTQVTVSS”, the “polyreactivity (PSR sort gate)” value is “high polyreactivity”.

Regarding “QVQLVESGGGLVQAGGSLRLSCAASGRTFGWYTKGWYRQAPGKERELVAAISRSGTSTYYADSVKGRFTISRDNAKNTVYLQMNSLKPEDTAVYYCAAGPWAYGRRHSYYSYGYWGQVTQVTVSS”, the “polyreactivity (PSR sort gate)” value is “high polyreactivity”. As for “QVQLVESGGGLVQAGGSLRLSCAASGRTFGWYTMGWYRQAPGKEREFVAAISSSDTSTYYADSVKGRFTISRDNAKNTVYLQMNSLKPEDTAVYYCAADPPSWRWFVGYSYDYWGQGTQVTVSS”, the “polyreactivity (PSR sort gate)” value is reported as “low polyreactivity”. On to “QVQLVESGGGLVQAGGSLRLSCAASGRTFGYNAMGRYRQAPGKERELVAAIRYSGGSTYYADSVKGRFTISRDNAKNTVYLQMNSLKPEDTAVYYCAKESRRYYRGYYYWGQGTQVTVSS”, for which the “polyreactivity (PSR sort gate)” value is “high polyreactivity”. For “QVQLVESGGGLVQAGGSLRLSCAASGRTFGYNAMGWYIQAPGKERELVAAINWSGASTYYADSVKGRFTISRDNAKNTVYLQMNSLKPEDTAVYYCAADYSYIYGFDYWGQGTQVTVSS”, the “polyreactivity (PSR sort gate)” value is “low polyreactivity”.

As for “QVQLVESGGGLVQAGGSLRLSCAASGRTFGYNAMGWYRQAPGKERELVASISWSGGTTYYADSVKGRFTISRDNAKNTVYLQMNSLKPEDTAVYYCAADRQSYVTRLYRSYWGNYWGQGTQVTVSS”, the “polyreactivity (PSR sort gate)” value is listed as “high polyreactivity”. With “QVQLVESGGGLVQAGGSLRLSCAASGRTFGYNAMGWYRQAPGKESEFVAAISWSGGRTYYADSVKGRFTISRDNAKNTVYLQMNSLKPEDTAVYYCAAGFGDGPGNGYYTRYSWDDDYWGQGTQVTVSS”, the “polyreactivity (PSR sort gate)” value is listed as “low polyreactivity”. Turning to “QVQLVESGGGLVQAGGSLRLSCAASGRTFGYNTMGWYRQAPGKERELVATIRTNGVSTYYADSVKGRFTISRDNAKNTVYLQMNSLKPEDTAVYYCNAPRTRKQKTIYVNAPGNYWGQGTQVTVSS”, the “polyreactivity (PSR sort gate)” value is “low polyreactivity”. With “QVQLVESGGGLVQAGGSLRLSCAASGRTFGYNVMGWYRQAPGKERELVAAINRGGGSTYYADSVKGRFTISRDNANNTVYLQMNSLKPEDTAVYYCIKRYRVWFDYWGQGTQVTVSS”, the “polyreactivity (PSR sort gate)” value was “high polyreactivity”. As for “QVQLVESGGGLVQAGGSLRLSCAASGRTFGYNVMGWYTQAPGKERELVAGISESGGRTYYADSVKGRVTISRDNAKNTVYLQMNSLKPEDTAVYYCAKRYQRASYDYWGQGTQVTVSS”, the “polyreactivity (PSR sort gate)” value is reported as “high polyreactivity”. For the sequence “QVQLVESGGGLVQAGGSLRLSCAASGRTFGYYALGWYRQAPGKERELVAAISSNTDSTYYADSVKGRFTISRDNEKNTVYLQMNSLKPEDTAVYYCAAEAYSYYPGTYEDDYWGQGTQVTVSS”, the “polyreactivity (PSR sort gate)” value is recorded as “low polyreactivity”. For “QVQLVESGGGLVQAGGSLRLSCAASGRTFGYYAMGWYRPAPGKERELVAAITSSSSTNYADSVKGRFTISRDNAKNTVYLQMNSLKPEDTAVYYCAAYGYYRSGYRALEGYWGQGTQVTVSS”, the “polyreactivity (PSR sort gate)” value was “high polyreactivity”. “QVQLVESGGGLVQAGGSLRLSCAASGRTFGYYAMGWYRQAPGKEREFVAAIWGGTSTYYADSVKGRFTISRDNAKNTVYLQMNSLKPEDTAVYYCAAEGWLYPTGYSTLHYEYDYWGQGTQVTVSS”: the “polyreactivity (PSR sort gate)” value is listed as “low polyreactivity”. With “QVQLVESGGGLVQAGGSLRLSCAASGRTFGYYAMGWYRQAPGKERELVAAISWRGGSTYYADSVKGRFTISRDNAKNTVYLQMNSLKPEDTAVYYCNRAYVYPQGPYPYDYWGQGTQVTVSS”, the “polyreactivity (PSR sort gate)” value is recorded as “high polyreactivity”. On to “QVQLVESGGGLVQAGGSLRLSCAASGRTFGYYAMGWYRQAPGKERELVAALSTSGGSTHYADSVKGRFTISRDNAKNTVSLQMNSLKPEDTAVYYCNARLRTGTPYKYVSYNSWGQGTQVTVSS”, for which the “polyreactivity (PSR sort gate)” value is given as “high polyreactivity”. “QVQLVESGGGLVQAGGSLRLSCAASGRTFGYYDMGWYRQAPGKGRELVAAITYSGGNTYYADSVKGRFTISRDNAKITVYLQMNSLKPEDTAVYSCAARSSFFPSYSRYDYWGQGTQVTVSS”: the “polyreactivity (PSR sort gate)” value is on record as “high polyreactivity”. “QVQLVESGGGLVQAGGSLRLSCAASGRTFGYYTMGWYRQAPGKEREYVAAISGSGTITFYADSVKGRFTISRDNAKNTVYLQMNSLKPEDTAVYYCAADYRYGGSRGYRYDYWGQGTQVTVSS”: the “polyreactivity (PSR sort gate)” value is given as “low polyreactivity”. Regarding “QVQLVESGGGLVQAGGSLRLSCAASGRTFHAYAMGWYRQAPGKGRELVAAITRTGTTHYADSVKGRFTISRDNAKNTVYLQMNSLKPEDTAVYYCAAQHVRVDAQFVLQGYDYWGQGTQVTVSS”, the “polyreactivity (PSR sort gate)” value was “low polyreactivity”. For “QVQLVESGGGLVQAGGSLRLSCAASGRTFHEYAMGWYRQAPGTERELVADISDGGSTNYADSVKGRFTISRDNAKNTVYLQMNSLKPEDTAVYYCNTDVPSAQYDYWGQGTQVTVSS”, the “polyreactivity (PSR sort gate)” value is on record as “low polyreactivity”.

Take “QVQLVESGGGLVQAGGSLRLSCAASGRTFHGYAMGWYRQAPGKERELVAAINASGGRTYYADSVKGRFTISRDNAKNTVYLQMNSLKPEDTAVYYCAVYSASFRYGLAYDYWGQGTQVTVSS”: the “polyreactivity (PSR sort gate)” value is on record as “high polyreactivity”. In the case of “QVQLVESGGGLVQAGGSLRLSCAASGRTFHRYAMGWYRQAPGKERELVAAITSSGGSPNYADSVKGRFTISRDNAKNTVYLQMNSLKPEDTAVYYCATDRYRYTSHPWSRGFDYWGQGTQVTVSS”, the “polyreactivity (PSR sort gate)” value was “low polyreactivity”.

Take “QVQLVESGGGLVQAGGSLRLSCAASGRTFHRYTMGWYRPAPGKERELVAAISRNGGSTYYADSVKGRFTISRDNAKNTVYLQMNSLKPEDTAVYYCNKPYWSDDYYSWGQGTQVTVSS”: the “polyreactivity (PSR sort gate)” value was “high polyreactivity”. Regarding “QVQLVESGGGLVQAGGSLRLSCAASGRTFHYNAMGWYRQAPGKERELVAAISFNGGGTYYADSVKGRFTISRDNAKNTVYLQMNSLKPEDTAVYYCATDVPSRYDYWGQGTQVTVSS”, the “polyreactivity (PSR sort gate)” value is on record as “low polyreactivity”. With “QVQLVESGGGLVQAGGSLRLSCAASGRTFHYYAMGWYRQAPGKERELVAAITRGGNTYYADSVKGRFTISRDNAKNTVYLQMNSLKPEDTAVYYCAKTAAVNGGYDYWGQGTQVTVSS” the entry was “high polyreactivity”.

With “QVQLVESGGGLVQAGGSLRLSCAASGRTFIANAMGWSRQAPGKERELVAAISWSGGSTYYADSVKGRFTISRDNAKNTVYLQMNSLKPEDTAVYYCTAKRFRTGFDYWGQGTQVTVSS”, the “polyreactivity (PSR sort gate)” value is recorded as “low polyreactivity”. For the sequence “QVQLVESGGGLVQAGGSLRLSCAASGRTFIFYAMGWYRPAPGNVRELVAAITLRGGGTDYADSVKGRFTISRDNAKNTVYLQMTSQQPEETAVYYCNADGYPVPRRFDPYSYLSDYWGQGTQVTVSS”, the “polyreactivity (PSR sort gate)” value was “low polyreactivity”. The value for “QVQLVESGGGLVQAGGSLRLSCAASGRTFIFYAMGWYRQAPGNERELVAAITLRGGGTDYADSVKGRFTISRDNAKYNVYLQMNSQKPEETAVYYCNADGYAVPRWFDPYSYLSDYWGQGTQVTVSS” was “low polyreactivity”; that for “QVQLVESGGGLVQAGGSLRLSCAASGRTFIFYAMGWYRQAPVKERELVAAITYSGTSTYYADSVKGRFTISRDNAKNTVYLQMNSLKPEDTAVYYCAKDGQRDANYYWGQGTQVTVSS” was “low polyreactivity”; that for “QVQLVESGGGLVQAGGSLRLSCAASGRTFIGNALGWYRQAPGKERELVASITRSGGSTYYADSVKGRFTISRDNAKNTVYLQMNSLKPEDTAVYYCAARVYTYYYDLHKRYYWGQGTQVTVSS” was “high polyreactivity”. Turning to “QVQLVESGGGLVQAGGSLRLSCAASGRTFIGNAMGWYRQAPGKERELVAGIDSDGSTNYADSVKGRFTISRDNAKNTVYLQMNSLKPEDTAVYYCAAVQGYRFYEYYYWGQGTQVTVSS”, the “polyreactivity (PSR sort gate)” value was “low polyreactivity”. Regarding “QVQLVESGGGLVQAGGSLRLSCAASGRTFIKYALGSYRQAPGKERELVAAISRNGGSTNYADSVKGRFTISRDNAKNTVYLLMNSLKPEDPAVYYCAAVGTVSRTVGYNYWGQGSQVTVSS”, the “polyreactivity (PSR sort gate)” value is given as “high polyreactivity”.

As to “QVQLVESGGGLVQAGGSLRLSCAASGRTFILNAMGWYRQAPGKERELVAAISWSGGSTYYADSVKGRFTISRDTAKNTVYLQMNSLKPEDTAVHYCATVRAWIPSGDYEYWGQGTQVTVSS”, the “polyreactivity (PSR sort gate)” value is on record as “low polyreactivity”.

Turning to “QVQLVESGGGLVQAGGSLRLSCAASGRTFIPYAMGWYRQAPGKERELVAAISTTAGTTYYADSVKGRFTISRDNAKNTVYLQMNSLKPEDTAVYYCAARRRWYRRYGGDFWGQGTQVTVSS”, the “polyreactivity (PSR sort gate)” value is given as “high polyreactivity”.

Consider “QVQLVESGGGLVQAGGSLRLSCAASGRTFIPYAMGWYRQAPGKERELVAAISWSGGGTYYADSVKGRFTISRDNAKNTVYLQMNSLKPEDTAVYYCAAEYWDSYGYWTFDYWGQGTQVTVSS”, for which the “polyreactivity (PSR sort gate)” value is recorded as “high polyreactivity”.

For “QVQLVESGGGLVQAGGSLRLSCAASGRTFIPYAMGWYRQAPGKERQLVATIRRGGSTYYADSVKGRFTISRDNAKNTVYLQMNSLKPEDTAEYYCAATRYSFGPRRVDYWGQGTQVTVSS”, the “polyreactivity (PSR sort gate)” value is on record as “high polyreactivity”.
